# Results as given in US20140072553A1 (MORPHOTEK, published 2014).
# Read-outs that look alike come from different tables or passages of the source.
# T1: Staphylococcus enterotoxin B (Staphylococcus aureus, UniProt P01552 28-266)
# T1 sequence: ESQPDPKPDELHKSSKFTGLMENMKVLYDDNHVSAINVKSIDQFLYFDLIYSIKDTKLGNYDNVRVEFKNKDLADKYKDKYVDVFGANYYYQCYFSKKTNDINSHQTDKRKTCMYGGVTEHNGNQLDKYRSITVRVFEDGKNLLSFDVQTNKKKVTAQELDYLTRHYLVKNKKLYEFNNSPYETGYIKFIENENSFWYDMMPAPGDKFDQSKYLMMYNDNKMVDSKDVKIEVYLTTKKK
# Columns and labels:
# [1] = target: T1, Staphylococcus enterotoxin B
# [2] = target: T1, Staphylococcus enterotoxin B; assay: cell-based or functional assay
# [3] = target: T1, Staphylococcus enterotoxin B; assay: cell-based or functional assay; remark: listed apart in the source
Binder,Kd [1],EC50 of inhibition of SEB-induced IFN-γ production by human PBMC [2],EC50 of inhibition of SEB-induced IFN-γ production by human PBMC [3],EC50 of inhibition of SEB-induced TNF-α production by human PBMC [3]
"human anti-SEB monoclonal antibody 100C9 (antibody, V domains shown) VH: EVQLVESGGGLVQPGGSLRLSCSASGFTFSSYWMSWVRQAPGKGLEWVANIIQDGSEKYYADSVKGRLTISRDNAKNSLYLQMNSLRVDDTAVYYCARGYEGCSATRCYLYYFDYWGPGTLVTVSS VL: SYVLTQPPSVSVSPGQTARITCSGDALPKQYTYWYQQKPGQAPVVVIYKDSERPSGIPERFSGSSSGTTVTVTISGVQAEDEADYYCQSADSSGTSLVFGGGTKLTVLG",9.75 nM,0.0766 µg/mL,,
"human anti-SEB monoclonal antibody 79G9 (antibody, V domains shown) VH: EVQLEESGAGLLKPSETLSLTCAVYGGSFSGYYWSWIRQAPGKGLEWIGEIDHSGTTNYNPSLKSRVTISVETSKNQFSLRLSSVTAADSAVYYCASSGYCSHGLCPQEDWGQGTLVTVSS VL: DIELTQSPSFLSASVGDRVAITCRASQGISNYLAWYQQKPGKAPKLLIYAAFVLQSGVPSRFSGSGSGTEFTLTISNLQPEDFATYYCQQLNSYPRAFGPGTKVDIKR",25 nM,0.125 µg/mL,158 ng/mL,217 ng/mL
